Results reported in article PMC2777425.

Biological target: T1, K752G844 (winged-helix domain) (UniProt Q54324 752-844)
T1 sequence: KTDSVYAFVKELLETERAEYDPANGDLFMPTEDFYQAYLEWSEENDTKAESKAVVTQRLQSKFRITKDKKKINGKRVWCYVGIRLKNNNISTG
Assay: fluorescence anisotropy

TCTTCTGTGCACTCTTC (ssDNA) [17-mer ss]
apparent K (half saturation): 1600 nM
